Laboratory results from PMC11840924, “Identifying Allosteric Hotspots in Mycobacterium tuberculosis cAMP Receptor Protein through Structural Homology” (Biochemistry, 2025).

Assays:
CRPMTB wildtype [1] = target: T1, CRPMTB wildtype (Mycobacterium tuberculosis, UniProt P9WMH3 1-224); assay: fluorescence anisotropy; 1 mM cAMP; specific 1:1 transition; 75 mM KCl, 50 mM HEPES, 1 mM EDTA, pH 7.6; […]; temperature not stated; conditions: protein: recombinant; tags: His-tag (pET-3a); chain copies: 2; label: fluorescein; blunt
T1 sequence: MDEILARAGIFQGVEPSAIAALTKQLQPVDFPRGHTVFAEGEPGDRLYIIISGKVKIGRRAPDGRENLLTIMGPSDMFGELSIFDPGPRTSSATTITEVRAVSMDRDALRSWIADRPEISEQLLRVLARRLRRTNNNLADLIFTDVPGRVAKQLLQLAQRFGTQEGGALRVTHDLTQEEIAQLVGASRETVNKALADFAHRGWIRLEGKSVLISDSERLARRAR

CRPMTB wildtype [2] = target: T1, CRPMTB wildtype; assay: fluorescence anisotropy; no cAMP; specific 1:1 transition; 75 mM KCl, 50 mM HEPES, 1 mM EDTA, pH 7.6; […]; temperature not stated; conditions: protein: recombinant; tags: His-tag (pET-3a); chain copies: 2; label: fluorescein; blunt

B1: serC32 full-site promoter (dsDNA)
DNA 1: GCGCGTAGTGTGAACAAGCTCACATGCAAGCC
DNA 2: GGCTTGCATGTGAGCTTGTTCACACTACGCGC
CRPMTB wildtype [1]
  Ka: 2.81 ± 0.01 10^8 M-1
CRPMTB wildtype [2]
  Ka: 1.87 ± 0.01 10^8 M-1
